T1: APBA2_2, Q99767
T1 sequence (Q99767 654-744, limits assumed, looked up): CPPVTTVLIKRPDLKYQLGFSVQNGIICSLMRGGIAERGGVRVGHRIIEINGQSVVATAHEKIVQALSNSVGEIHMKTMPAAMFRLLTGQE

T2: GRIP1_3, Q9Y3R0
T2 sequence (Q9Y3R0 247-346, limits assumed, looked up): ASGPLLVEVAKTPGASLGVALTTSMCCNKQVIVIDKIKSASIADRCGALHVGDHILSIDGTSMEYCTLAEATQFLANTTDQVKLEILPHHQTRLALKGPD

T3: HTRA4, P83105
T3 sequence (P83105 378-476, limits assumed, looked up): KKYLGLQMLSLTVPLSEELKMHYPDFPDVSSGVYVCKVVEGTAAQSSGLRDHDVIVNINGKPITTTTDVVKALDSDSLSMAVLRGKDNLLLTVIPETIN

T4: LNX2_3, Q8N448
T4 sequence (Q8N448 463-564, limits assumed, looked up): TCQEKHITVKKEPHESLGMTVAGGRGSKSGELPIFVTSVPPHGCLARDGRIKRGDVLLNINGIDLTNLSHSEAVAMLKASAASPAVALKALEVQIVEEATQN

T5: LRRC7, Q96NW7
T5 sequence (Q96NW7 1440-1537, limits assumed, looked up): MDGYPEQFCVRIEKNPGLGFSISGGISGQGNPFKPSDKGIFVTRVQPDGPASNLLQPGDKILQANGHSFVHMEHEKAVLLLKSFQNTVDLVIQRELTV

T6: MPDZ_5, O75970
T6 sequence (O75970 695-796, limits assumed, looked up): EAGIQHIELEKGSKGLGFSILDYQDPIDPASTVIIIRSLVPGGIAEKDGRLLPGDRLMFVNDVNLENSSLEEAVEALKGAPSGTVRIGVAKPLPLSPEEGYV

T7: MPP6, Q9NZW5
T7 sequence (Q9NZW5 125-219, limits assumed, looked up): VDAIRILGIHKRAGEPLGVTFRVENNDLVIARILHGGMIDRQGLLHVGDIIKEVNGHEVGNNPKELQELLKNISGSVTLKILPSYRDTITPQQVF

T8: RAPGEF6, Q8TEU7
T8 sequence (Q8TEU7 525-625, limits assumed, looked up): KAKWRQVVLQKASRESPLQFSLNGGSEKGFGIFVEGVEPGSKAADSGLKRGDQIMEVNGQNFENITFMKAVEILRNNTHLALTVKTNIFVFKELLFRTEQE

T9: SIPA1L2, Q9P2F8
T9 sequence (Q9P2F8 945-1036, limits assumed, looked up): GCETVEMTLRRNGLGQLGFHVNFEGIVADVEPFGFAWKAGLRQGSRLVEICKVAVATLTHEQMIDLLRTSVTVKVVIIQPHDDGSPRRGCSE

T10: SNTB1, Q13884
T10 sequence (Q13884 107-205, limits assumed, looked up): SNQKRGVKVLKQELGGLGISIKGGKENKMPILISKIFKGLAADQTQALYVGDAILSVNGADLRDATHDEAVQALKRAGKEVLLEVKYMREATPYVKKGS

T11: TIAM2, Q8IVF5
T11 sequence (Q8IVF5 885-986, limits assumed, looked up): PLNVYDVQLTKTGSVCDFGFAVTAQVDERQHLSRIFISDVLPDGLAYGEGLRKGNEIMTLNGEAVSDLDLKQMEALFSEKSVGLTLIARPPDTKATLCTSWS


Experiments:
Assay in all cases: holdup assay
Design in all cases: key: below the threshold = too weak to quantify, mostly under pKd 3.1 to 4
Conditions in all cases: plain residues with an end cap or a label only (N-terminal biotin on a linker: ado-ado)
[1] = target: T1, APBA2_2, Q99767
[2] = target: DLG1_1, Q12959
[3] = target: DLG4_1, P78352
[4] = target: DLG4_3, P78352
[5] = target: FRMPD2_1, Q68DX3
[6] = target: FRMPD2_2, Q68DX3
[7] = target: T2, GRIP1_3, Q9Y3R0
[8] = target: GRIP2_5, Q9C0E4
[9] = target: HTRA1, Q92743
[10] = target: T3, HTRA4, P83105
[11] = target: IL16_1, Q14005
[12] = target: LDB3, O75112
[13] = target: T4, LNX2_3, Q8N448
[14] = target: T5, LRRC7, Q96NW7
[15] = target: MAGI2_2, Q86UL8
[16] = target: MAGI2_3, Q86UL8
[17] = target: MAST1, Q9Y2H9
[18] = target: T6, MPDZ_5, O75970
[19] = target: T7, MPP6, Q9NZW5
[20] = target: NHERF2_2, Q15599
[21] = target: PDLIM1, O00151
[22] = target: PICK1, Q9NRD5
[23] = target: PTPN3, P26045
[24] = target: T8, RAPGEF6, Q8TEU7
[25] = target: T9, SIPA1L2, Q9P2F8
[26] = target: T10, SNTB1, Q13884
[27] = target: T11, TIAM2, Q8IVF5

Sequence of DLG4_3, P78352 (P78352 306-403): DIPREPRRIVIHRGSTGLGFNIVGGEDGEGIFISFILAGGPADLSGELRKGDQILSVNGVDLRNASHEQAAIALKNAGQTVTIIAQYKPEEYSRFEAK
Sequence of MAGI2_2, Q86UL8 (Q86UL8 410-522): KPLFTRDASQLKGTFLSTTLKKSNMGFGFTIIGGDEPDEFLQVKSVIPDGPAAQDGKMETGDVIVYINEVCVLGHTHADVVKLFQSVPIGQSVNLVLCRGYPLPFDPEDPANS
Sequence of LDB3, O75112 (O75112 1-94): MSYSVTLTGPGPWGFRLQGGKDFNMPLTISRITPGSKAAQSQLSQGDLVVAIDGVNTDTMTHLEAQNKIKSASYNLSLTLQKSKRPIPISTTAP
Sequence of DLG4_1, P78352 (P78352 62-152): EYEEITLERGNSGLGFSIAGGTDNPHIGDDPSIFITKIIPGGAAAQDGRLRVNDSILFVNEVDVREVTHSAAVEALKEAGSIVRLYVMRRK
Sequence of MAGI2_3, Q86UL8 (Q86UL8 600-682): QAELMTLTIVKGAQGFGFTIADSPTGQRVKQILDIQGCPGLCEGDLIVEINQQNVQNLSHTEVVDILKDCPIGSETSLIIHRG
Sequence of PICK1, Q9NRD5 (Q9NRD5 17-115): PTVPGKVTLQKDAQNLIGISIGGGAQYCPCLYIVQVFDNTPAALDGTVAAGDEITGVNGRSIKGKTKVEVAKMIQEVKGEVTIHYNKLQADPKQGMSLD
Sequence of IL16_1, Q14005 (Q14005 210-306): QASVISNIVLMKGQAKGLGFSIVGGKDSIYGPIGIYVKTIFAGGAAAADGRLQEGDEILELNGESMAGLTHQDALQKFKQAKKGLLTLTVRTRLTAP
Sequence of PDLIM1, O00151 (O00151 1-87): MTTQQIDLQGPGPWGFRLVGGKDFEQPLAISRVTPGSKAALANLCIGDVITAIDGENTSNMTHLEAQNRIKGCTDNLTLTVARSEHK
Sequence of HTRA1, Q92743 (Q92743 360-477): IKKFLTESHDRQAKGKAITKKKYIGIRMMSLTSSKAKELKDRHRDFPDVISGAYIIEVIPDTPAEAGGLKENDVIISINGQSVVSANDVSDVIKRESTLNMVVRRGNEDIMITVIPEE
Sequence of MAST1, Q9Y2H9 (Q9Y2H9 962-1065): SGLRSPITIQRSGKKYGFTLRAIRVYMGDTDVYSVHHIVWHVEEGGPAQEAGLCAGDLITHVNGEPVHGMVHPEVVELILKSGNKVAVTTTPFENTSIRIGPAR
Sequence of FRMPD2_1, Q68DX3 (Q68DX3 770-861): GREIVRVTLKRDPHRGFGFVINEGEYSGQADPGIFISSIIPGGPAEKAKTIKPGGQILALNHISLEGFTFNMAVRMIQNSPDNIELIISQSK
Sequence of GRIP2_5, Q9C0E4 (Q9C0E4 544-642): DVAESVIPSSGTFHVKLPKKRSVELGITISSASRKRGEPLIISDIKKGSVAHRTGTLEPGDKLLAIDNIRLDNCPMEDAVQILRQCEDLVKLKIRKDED
Sequence of PTPN3, P26045 (P26045 505-587): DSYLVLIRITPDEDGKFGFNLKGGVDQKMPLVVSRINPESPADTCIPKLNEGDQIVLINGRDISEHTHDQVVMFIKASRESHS
Sequence of NHERF2_2, Q15599 (Q15599 142-238): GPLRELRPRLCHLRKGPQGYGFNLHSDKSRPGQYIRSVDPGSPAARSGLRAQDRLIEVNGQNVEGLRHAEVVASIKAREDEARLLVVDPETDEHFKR
Sequence of FRMPD2_2, Q68DX3 (Q68DX3 944-1038): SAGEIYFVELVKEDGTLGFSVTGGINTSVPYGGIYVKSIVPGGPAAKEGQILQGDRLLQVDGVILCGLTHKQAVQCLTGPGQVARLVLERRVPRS

Binder	pKd [1]	pKd [2]	pKd [3]	pKd [4]	pKd [5]	pKd [6]	pKd [7]	pKd [8]	pKd [9]	pKd [10]	pKd [11]	pKd [12]	pKd [13]	pKd [14]	pKd [15]	pKd [16]	pKd [17]	pKd [18]	pKd [19]	pKd [20]	other results
YPKQMPLSQV [FZD8, Q9H461]	below the threshold	below the threshold	3.69	below the threshold	below the threshold	below the threshold	below the threshold	below the threshold	below the threshold	3.94	below the threshold	below the threshold	below the threshold	below the threshold	4.29	below the threshold	4.09	below the threshold	below the threshold	below the threshold	pKd [21]: below the threshold; pKd [22]: below the threshold; pKd [23]: below the threshold; pKd [24]: below the threshold; pKd [25]: below the threshold; pKd [26]: below the threshold; pKd [27]: below the threshold
AEDEEIQTKM [UNC93A, Q86WB7]	below the threshold	below the threshold	below the threshold	below the threshold	below the threshold	below the threshold	below the threshold	below the threshold	below the threshold	3.8	below the threshold	below the threshold	below the threshold	below the threshold	below the threshold	below the threshold	4.72	below the threshold	below the threshold	4.81	pKd [21]: below the threshold; pKd [22]: 4.11; pKd [23]: 4.17; pKd [24]: below the threshold; pKd [25]: below the threshold; pKd [26]: below the threshold; pKd [27]: below the threshold
LGHTPFVDEL [UQCRC2, P22695]	below the threshold	below the threshold	below the threshold	below the threshold	below the threshold	below the threshold	below the threshold	below the threshold	3.97	3.98	3.49	below the threshold	below the threshold	below the threshold	below the threshold	below the threshold	4.12	below the threshold	below the threshold	4.34	pKd [21]: below the threshold; pKd [22]: 4.09; pKd [23]: 4.1; pKd [24]: below the threshold; pKd [25]: below the threshold; pKd [26]: below the threshold; pKd [27]: below the threshold
GDGLDDEIAV [NOS1AP, O75052]	below the threshold	below the threshold	below the threshold	below the threshold	below the threshold	below the threshold	below the threshold	below the threshold	4.68	3.9	below the threshold	below the threshold	below the threshold	below the threshold	below the threshold	below the threshold	3.72	below the threshold	below the threshold	below the threshold	pKd [21]: below the threshold; pKd [22]: 4.38; pKd [23]: 3.79; pKd [24]: below the threshold; pKd [25]: below the threshold; pKd [26]: below the threshold; pKd [27]: 3.8
QNRIITKTDV [SMCHD1, A6NHR9]	below the threshold	3.63	3.82	below the threshold	below the threshold	below the threshold	below the threshold	below the threshold	below the threshold	below the threshold	below the threshold	below the threshold	below the threshold	below the threshold	4.08	below the threshold	below the threshold	below the threshold	below the threshold	below the threshold	pKd [21]: below the threshold; pKd [22]: below the threshold; pKd [23]: below the threshold; pKd [24]: below the threshold; pKd [25]: below the threshold; pKd [26]: 3.64; pKd [27]: below the threshold
